Experimental data taken from the supplement of paper PMC10065799, “High-throughput profiling of sequence recognition by tyrosine kinases and SH2 domains using bacterial peptide display” (eLife, 2023).

What was measured:
EPHB2 = EPHB2 (UniProt P29323); test: phosphorylation enrichment, bacterial display (enrichment ratio); higher = better substrate or ligand; peptides without Tyr show the background
MERTK = MERTK (UniProt Q12866); test: as above
Fes = Fes (UniProt P07332); test: as above
AncSZ = test: as above
Jak2 = Jak2 (UniProt O60674); test: as above
FGFR1 = FGFR1 (UniProt P11362); test: as above
Hck = Hck (UniProt P08631); test: as above
EPHB1 = EPHB1 (UniProt P54762); test: as above
FGFR3 = FGFR3 (UniProt P22607); test: as above
c-Abl (mouse) = test: as above
c-Src = test: as above
Fyn = Fyn (UniProt P06241); test: as above
Fer (mouse) = test: as above
SHP2-C SH2 = test: SH2 binding enrichment of the phosphorylated peptide, bacterial display (enrichment ratio); higher = better substrate or ligand; peptides without Tyr show the background
Grb2 SH2 = Grb2 SH2 (UniProt P62993); test: as above
c-Src SH2 = test: as above
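Wherever SH2 binding enrichment of the phosphorylated peptide, bacterial display is given: peptide library displayed on the E. coli surface as eCPX fusions, selected cells deep-sequenced, score is each peptide's frequency after selection divided by its frequency in the input.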
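Wherever phosphorylation enrichment, bacterial display is given: 11-residue human phosphosite peptides and single-mutation variants displayed on the E. coli surface, counted by deep sequencing, each peptide's frequency after selection divided by its frequency in the unselected input library; frequency after pTyr selection over input frequency; kinase dosed for 20-30% of maximal phosphorylation in three min.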

Chain of FGFR3 (P22607 whole entry, looked up): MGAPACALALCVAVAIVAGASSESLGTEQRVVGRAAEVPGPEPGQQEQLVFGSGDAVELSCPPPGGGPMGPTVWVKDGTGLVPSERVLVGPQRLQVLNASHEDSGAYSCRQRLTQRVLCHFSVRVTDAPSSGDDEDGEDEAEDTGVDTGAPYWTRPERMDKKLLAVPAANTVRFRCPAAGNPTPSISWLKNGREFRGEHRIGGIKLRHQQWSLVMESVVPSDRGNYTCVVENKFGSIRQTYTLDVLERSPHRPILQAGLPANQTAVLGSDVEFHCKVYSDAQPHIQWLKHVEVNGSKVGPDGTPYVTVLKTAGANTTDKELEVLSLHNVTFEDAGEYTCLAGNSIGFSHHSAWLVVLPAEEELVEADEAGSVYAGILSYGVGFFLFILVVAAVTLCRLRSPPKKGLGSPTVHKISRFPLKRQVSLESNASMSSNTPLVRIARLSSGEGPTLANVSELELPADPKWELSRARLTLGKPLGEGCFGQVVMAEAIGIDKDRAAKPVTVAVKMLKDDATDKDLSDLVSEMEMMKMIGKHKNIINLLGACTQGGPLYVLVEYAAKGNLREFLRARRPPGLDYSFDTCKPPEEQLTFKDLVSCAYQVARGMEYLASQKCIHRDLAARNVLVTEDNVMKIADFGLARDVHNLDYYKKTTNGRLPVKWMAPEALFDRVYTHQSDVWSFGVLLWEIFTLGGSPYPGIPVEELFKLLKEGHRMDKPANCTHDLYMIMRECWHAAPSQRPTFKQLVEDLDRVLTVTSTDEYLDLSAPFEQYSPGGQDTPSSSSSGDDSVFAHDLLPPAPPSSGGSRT
Chain of Grb2 SH2 (P62993 whole entry, looked up): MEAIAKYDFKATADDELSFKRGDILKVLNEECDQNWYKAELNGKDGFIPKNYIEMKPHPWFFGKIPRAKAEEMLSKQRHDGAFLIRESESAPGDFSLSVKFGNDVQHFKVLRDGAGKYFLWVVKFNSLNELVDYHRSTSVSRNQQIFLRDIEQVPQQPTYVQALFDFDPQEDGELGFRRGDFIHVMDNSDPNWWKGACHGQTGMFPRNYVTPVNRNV
Chain of FGFR1 (P11362 whole entry, looked up): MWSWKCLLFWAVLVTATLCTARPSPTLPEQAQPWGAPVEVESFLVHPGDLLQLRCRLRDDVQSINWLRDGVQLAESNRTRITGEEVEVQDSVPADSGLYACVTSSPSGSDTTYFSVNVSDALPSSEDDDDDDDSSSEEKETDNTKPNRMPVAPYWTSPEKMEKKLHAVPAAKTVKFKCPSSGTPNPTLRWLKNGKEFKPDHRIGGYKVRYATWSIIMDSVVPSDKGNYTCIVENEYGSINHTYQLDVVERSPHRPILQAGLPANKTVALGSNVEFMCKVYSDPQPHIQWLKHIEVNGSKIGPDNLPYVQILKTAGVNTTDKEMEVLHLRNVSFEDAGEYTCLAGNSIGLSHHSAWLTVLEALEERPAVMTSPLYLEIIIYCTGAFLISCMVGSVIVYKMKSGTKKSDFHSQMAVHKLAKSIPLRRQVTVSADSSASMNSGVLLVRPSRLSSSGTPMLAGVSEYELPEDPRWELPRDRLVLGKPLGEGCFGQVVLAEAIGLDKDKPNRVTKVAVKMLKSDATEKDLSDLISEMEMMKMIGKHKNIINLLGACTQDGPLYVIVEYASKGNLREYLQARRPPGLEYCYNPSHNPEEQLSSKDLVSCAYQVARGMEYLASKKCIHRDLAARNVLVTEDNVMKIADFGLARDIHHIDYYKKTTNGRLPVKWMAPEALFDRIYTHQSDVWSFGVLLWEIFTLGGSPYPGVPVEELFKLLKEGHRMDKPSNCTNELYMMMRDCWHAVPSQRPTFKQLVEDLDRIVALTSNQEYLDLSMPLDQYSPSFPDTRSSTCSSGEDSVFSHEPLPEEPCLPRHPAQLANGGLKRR
Chain of EPHB1 (P54762 whole entry, looked up): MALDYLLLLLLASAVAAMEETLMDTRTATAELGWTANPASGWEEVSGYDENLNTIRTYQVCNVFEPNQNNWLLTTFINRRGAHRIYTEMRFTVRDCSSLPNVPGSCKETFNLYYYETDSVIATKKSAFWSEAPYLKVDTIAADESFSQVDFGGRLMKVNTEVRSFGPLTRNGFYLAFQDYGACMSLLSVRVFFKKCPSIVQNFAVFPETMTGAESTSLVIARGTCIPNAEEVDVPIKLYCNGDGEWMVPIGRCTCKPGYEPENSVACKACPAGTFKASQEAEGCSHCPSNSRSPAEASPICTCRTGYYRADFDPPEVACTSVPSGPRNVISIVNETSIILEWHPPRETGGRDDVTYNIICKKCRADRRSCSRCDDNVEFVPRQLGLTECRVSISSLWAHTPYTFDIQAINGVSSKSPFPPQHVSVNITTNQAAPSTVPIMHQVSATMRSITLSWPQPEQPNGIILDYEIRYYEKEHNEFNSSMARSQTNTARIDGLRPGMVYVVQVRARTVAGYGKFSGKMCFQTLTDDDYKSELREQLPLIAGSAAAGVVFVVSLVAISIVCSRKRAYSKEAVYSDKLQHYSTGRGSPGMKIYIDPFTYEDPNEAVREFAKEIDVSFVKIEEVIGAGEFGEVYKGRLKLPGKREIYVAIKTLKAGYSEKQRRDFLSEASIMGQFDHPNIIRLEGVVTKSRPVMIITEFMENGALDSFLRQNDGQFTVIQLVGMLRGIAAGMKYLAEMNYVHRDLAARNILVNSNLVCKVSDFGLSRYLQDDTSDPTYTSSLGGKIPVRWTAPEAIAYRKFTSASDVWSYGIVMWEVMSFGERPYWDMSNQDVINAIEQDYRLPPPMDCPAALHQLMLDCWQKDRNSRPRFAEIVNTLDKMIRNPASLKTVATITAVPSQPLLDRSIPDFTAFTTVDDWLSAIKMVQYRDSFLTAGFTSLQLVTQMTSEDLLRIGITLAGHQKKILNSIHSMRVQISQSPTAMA
Chain of Hck (P08631 whole entry, looked up): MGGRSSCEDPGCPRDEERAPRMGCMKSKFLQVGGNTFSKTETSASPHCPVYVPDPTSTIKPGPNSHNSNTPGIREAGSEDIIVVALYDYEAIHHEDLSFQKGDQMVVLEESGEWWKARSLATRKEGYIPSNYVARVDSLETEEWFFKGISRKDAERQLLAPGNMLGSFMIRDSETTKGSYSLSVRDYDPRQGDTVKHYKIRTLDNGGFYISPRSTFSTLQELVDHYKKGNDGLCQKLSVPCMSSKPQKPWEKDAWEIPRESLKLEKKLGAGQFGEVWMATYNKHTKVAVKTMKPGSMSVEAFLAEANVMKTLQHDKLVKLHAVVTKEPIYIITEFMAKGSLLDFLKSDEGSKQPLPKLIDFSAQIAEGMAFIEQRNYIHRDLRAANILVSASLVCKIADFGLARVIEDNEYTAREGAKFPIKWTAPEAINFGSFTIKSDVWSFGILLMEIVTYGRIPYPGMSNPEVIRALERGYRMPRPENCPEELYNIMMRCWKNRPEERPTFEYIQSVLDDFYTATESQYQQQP
Chain of Fes (P07332 whole entry, looked up): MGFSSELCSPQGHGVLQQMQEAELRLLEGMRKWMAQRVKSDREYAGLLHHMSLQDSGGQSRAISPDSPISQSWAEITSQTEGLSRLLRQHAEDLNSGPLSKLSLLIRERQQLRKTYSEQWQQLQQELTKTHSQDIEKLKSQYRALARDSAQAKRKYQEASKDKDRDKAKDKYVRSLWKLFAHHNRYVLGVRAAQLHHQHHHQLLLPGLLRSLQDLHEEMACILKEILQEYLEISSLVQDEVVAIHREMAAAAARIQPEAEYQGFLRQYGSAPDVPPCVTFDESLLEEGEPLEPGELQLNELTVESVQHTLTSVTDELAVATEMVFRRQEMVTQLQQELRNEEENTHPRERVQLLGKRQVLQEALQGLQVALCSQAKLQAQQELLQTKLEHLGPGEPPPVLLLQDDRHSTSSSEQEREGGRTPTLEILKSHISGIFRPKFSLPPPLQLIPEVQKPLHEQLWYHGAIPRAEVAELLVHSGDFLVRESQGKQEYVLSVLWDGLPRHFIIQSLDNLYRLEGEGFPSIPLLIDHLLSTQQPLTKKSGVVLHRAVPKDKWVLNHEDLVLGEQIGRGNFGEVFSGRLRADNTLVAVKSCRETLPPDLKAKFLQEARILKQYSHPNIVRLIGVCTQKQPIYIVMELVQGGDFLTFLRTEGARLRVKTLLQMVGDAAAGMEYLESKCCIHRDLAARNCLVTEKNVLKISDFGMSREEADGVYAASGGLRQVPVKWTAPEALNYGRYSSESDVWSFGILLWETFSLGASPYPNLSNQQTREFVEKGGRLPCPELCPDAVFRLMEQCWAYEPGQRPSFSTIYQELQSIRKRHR
Chain of Fyn (P06241 whole entry, looked up): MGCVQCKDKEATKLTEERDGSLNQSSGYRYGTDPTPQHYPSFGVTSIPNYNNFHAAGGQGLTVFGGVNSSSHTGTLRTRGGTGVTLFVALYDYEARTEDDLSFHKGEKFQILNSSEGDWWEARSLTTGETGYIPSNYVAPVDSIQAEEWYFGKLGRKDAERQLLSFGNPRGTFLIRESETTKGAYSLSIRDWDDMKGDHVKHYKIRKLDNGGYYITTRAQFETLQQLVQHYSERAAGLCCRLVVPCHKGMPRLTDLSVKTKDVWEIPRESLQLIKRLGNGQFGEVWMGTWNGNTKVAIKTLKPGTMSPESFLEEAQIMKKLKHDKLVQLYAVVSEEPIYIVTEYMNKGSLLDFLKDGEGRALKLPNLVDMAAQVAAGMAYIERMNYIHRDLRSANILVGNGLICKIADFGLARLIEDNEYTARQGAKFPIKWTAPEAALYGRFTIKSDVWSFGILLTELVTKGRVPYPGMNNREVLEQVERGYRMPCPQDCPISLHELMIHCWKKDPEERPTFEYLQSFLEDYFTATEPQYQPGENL

Sequence: IEEGTYGVAFR [CDK11B_Y449_V452A_YF]
- phosphorylation enrichment (EPHB2): 2.24
- phosphorylation enrichment (MERTK): 1.6
- phosphorylation enrichment (Fes): 1.11
- phosphorylation enrichment (AncSZ): 1.32
- phosphorylation enrichment (Jak2): 0.859
- phosphorylation enrichment (FGFR1): 0.465
- phosphorylation enrichment (Hck): 6.06
- phosphorylation enrichment (EPHB1): 0.888
- phosphorylation enrichment (FGFR3): 0.915
- phosphorylation enrichment (c-Abl (mouse)): 0.982
- phosphorylation enrichment (c-Src): 5.45
- phosphorylation enrichment (Fyn): 7.47
- phosphorylation enrichment (Fer (mouse)): 4.45
- SH2 binding enrichment (SHP2-C SH2): 0.51
- SH2 binding enrichment (Grb2 SH2): 0.612
- SH2 binding enrichment (c-Src SH2): 0.374

Sequence: IEKLTYIDEWF [CPS1_Y872_K875E]
- phosphorylation enrichment (EPHB2): 0.557
- phosphorylation enrichment (MERTK): 0.488
- phosphorylation enrichment (Fes): 1.35
- phosphorylation enrichment (AncSZ): 1.18
- phosphorylation enrichment (Jak2): 1.17
- phosphorylation enrichment (FGFR1): 0.567
- phosphorylation enrichment (Hck): 0.472
- phosphorylation enrichment (EPHB1): 0.624
- phosphorylation enrichment (FGFR3): 0.737
- phosphorylation enrichment (c-Abl (mouse)): 0.81
- phosphorylation enrichment (c-Src): 0.544
- phosphorylation enrichment (Fyn): 0.453
- phosphorylation enrichment (Fer (mouse)): 0.548
- SH2 binding enrichment (SHP2-C SH2): 0.719
- SH2 binding enrichment (Grb2 SH2): 0.698
- SH2 binding enrichment (c-Src SH2): 0.488

Sequence: IFLENYNAGTY [CFI_Y421_H418L]
- phosphorylation enrichment (EPHB2): 0.443
- phosphorylation enrichment (MERTK): 0.403
- phosphorylation enrichment (Fes): 1.04
- phosphorylation enrichment (AncSZ): 0.846
- phosphorylation enrichment (Jak2): 0.786
- phosphorylation enrichment (FGFR1): 0.481
- phosphorylation enrichment (Hck): 0.543
- phosphorylation enrichment (EPHB1): 0.656
- phosphorylation enrichment (FGFR3): 0.897
- phosphorylation enrichment (c-Abl (mouse)): 0.665
- phosphorylation enrichment (c-Src): 0.687
- phosphorylation enrichment (Fyn): 0.415
- phosphorylation enrichment (Fer (mouse)): 0.558
- SH2 binding enrichment (SHP2-C SH2): 0.777
- SH2 binding enrichment (Grb2 SH2): 0.937
- SH2 binding enrichment (c-Src SH2): 0.668

Sequence: IGEGTYGTVFK [CDK5_Y15]
- phosphorylation enrichment (EPHB2): 2.08
- phosphorylation enrichment (MERTK): 0.825
- phosphorylation enrichment (Fes): 0.793
- phosphorylation enrichment (AncSZ): 0.707
- phosphorylation enrichment (Jak2): 0.788
- phosphorylation enrichment (FGFR1): 0.515
- phosphorylation enrichment (Hck): 9.06
- phosphorylation enrichment (EPHB1): 0.989
- phosphorylation enrichment (FGFR3): 0.58
- phosphorylation enrichment (c-Abl (mouse)): 0.676
- phosphorylation enrichment (c-Src): 6.34
- phosphorylation enrichment (Fyn): 10.4
- phosphorylation enrichment (Fer (mouse)): 1.41
- SH2 binding enrichment (SHP2-C SH2): 0.703
- SH2 binding enrichment (Grb2 SH2): 0.699
- SH2 binding enrichment (c-Src SH2): 0.434

Sequence: IGHHAYGDQYR [IDH1_Y135_R132H]
- phosphorylation enrichment (EPHB2): 0.363
- phosphorylation enrichment (MERTK): 0.421
- phosphorylation enrichment (Fes): 0.537
- phosphorylation enrichment (AncSZ): 0.564
- phosphorylation enrichment (Jak2): 0.448
- phosphorylation enrichment (FGFR1): 0.389
- phosphorylation enrichment (Hck): 0.439
- phosphorylation enrichment (EPHB1): 0.426
- phosphorylation enrichment (FGFR3): 0.342
- phosphorylation enrichment (c-Abl (mouse)): 0.467
- phosphorylation enrichment (c-Src): 0.418
- phosphorylation enrichment (Fyn): 0.355
- phosphorylation enrichment (Fer (mouse)): 0.386
- SH2 binding enrichment (SHP2-C SH2): 0.538
- SH2 binding enrichment (Grb2 SH2): 0.724
- SH2 binding enrichment (c-Src SH2): 0.629

Sequence: IGNGFYFHVFS [MYBPC3_Y1136_R1138H_YF]
- phosphorylation enrichment (EPHB2): 0.643
- phosphorylation enrichment (MERTK): 0.419
- phosphorylation enrichment (Fes): 1.31
- phosphorylation enrichment (AncSZ): 1.06
- phosphorylation enrichment (Jak2): 1.28
- phosphorylation enrichment (FGFR1): 0.472
- phosphorylation enrichment (Hck): 0.423
- phosphorylation enrichment (EPHB1): 0.639
- phosphorylation enrichment (FGFR3): 0.757
- phosphorylation enrichment (c-Abl (mouse)): 1.04
- phosphorylation enrichment (c-Src): 0.381
- phosphorylation enrichment (Fyn): 0.4
- phosphorylation enrichment (Fer (mouse)): 0.449
- SH2 binding enrichment (SHP2-C SH2): 0.7
- SH2 binding enrichment (Grb2 SH2): 0.982
- SH2 binding enrichment (c-Src SH2): 0.484

Sequence: IINENYDFLKG [NUP98_Y1664_YF]
- phosphorylation enrichment (EPHB2): 0.726
- phosphorylation enrichment (MERTK): 0.602
- phosphorylation enrichment (Fes): 0.903
- phosphorylation enrichment (AncSZ): 0.82
- phosphorylation enrichment (Jak2): 0.761
- phosphorylation enrichment (FGFR1): 0.518
- phosphorylation enrichment (Hck): 1.19
- phosphorylation enrichment (EPHB1): 0.677
- phosphorylation enrichment (FGFR3): 0.631
- phosphorylation enrichment (c-Abl (mouse)): 0.57
- phosphorylation enrichment (c-Src): 0.495
- phosphorylation enrichment (Fyn): 0.426
- phosphorylation enrichment (Fer (mouse)): 0.466
- SH2 binding enrichment (SHP2-C SH2): 0.737
- SH2 binding enrichment (Grb2 SH2): 0.831
- SH2 binding enrichment (c-Src SH2): 0.755

Sequence: IIWDSYTTNEM [GNB4_Y85_K89E]
- phosphorylation enrichment (EPHB2): 0.795
- phosphorylation enrichment (MERTK): 0.411
- phosphorylation enrichment (Fes): 1.43
- phosphorylation enrichment (AncSZ): 1.48
- phosphorylation enrichment (Jak2): 1.39
- phosphorylation enrichment (FGFR1): 0.678
- phosphorylation enrichment (Hck): 0.54
- phosphorylation enrichment (EPHB1): 0.787
- phosphorylation enrichment (FGFR3): 0.903
- phosphorylation enrichment (c-Abl (mouse)): 0.829
- phosphorylation enrichment (c-Src): 0.57
- phosphorylation enrichment (Fyn): 0.747
- phosphorylation enrichment (Fer (mouse)): 0.705
- SH2 binding enrichment (SHP2-C SH2): 0.752
- SH2 binding enrichment (Grb2 SH2): 0.896
- SH2 binding enrichment (c-Src SH2): 0.739

Sequence: IKIMGYSIRTI [IDS_Y490]
- phosphorylation enrichment (EPHB2): 0.52
- phosphorylation enrichment (MERTK): 0.455
- phosphorylation enrichment (Fes): 1.01
- phosphorylation enrichment (AncSZ): 0.991
- phosphorylation enrichment (Jak2): 0.862
- phosphorylation enrichment (FGFR1): 0.424
- phosphorylation enrichment (Hck): 0.457
- phosphorylation enrichment (EPHB1): 0.494
- phosphorylation enrichment (FGFR3): 0.657
- phosphorylation enrichment (c-Abl (mouse)): 0.822
- phosphorylation enrichment (c-Src): 0.571
- phosphorylation enrichment (Fyn): 0.452
- phosphorylation enrichment (Fer (mouse)): 0.478
- SH2 binding enrichment (SHP2-C SH2): 1.02
- SH2 binding enrichment (Grb2 SH2): 1.4
- SH2 binding enrichment (c-Src SH2): 0.816

Sequence: ILDEAYVMAGV [ERBB2_Y772]
- phosphorylation enrichment (EPHB2): 0.487
- phosphorylation enrichment (MERTK): 0.441
- phosphorylation enrichment (Fes): 0.916
- phosphorylation enrichment (AncSZ): 1.11
- phosphorylation enrichment (Jak2): 0.832
- phosphorylation enrichment (FGFR1): 0.622
- phosphorylation enrichment (Hck): 0.532
- phosphorylation enrichment (EPHB1): 0.439
- phosphorylation enrichment (FGFR3): 0.642
- phosphorylation enrichment (c-Abl (mouse)): 0.577
- phosphorylation enrichment (c-Src): 0.694
- phosphorylation enrichment (Fyn): 0.555
- phosphorylation enrichment (Fer (mouse)): 0.448
- SH2 binding enrichment (SHP2-C SH2): 0.651
- SH2 binding enrichment (Grb2 SH2): 0.935
- SH2 binding enrichment (c-Src SH2): 0.494

Sequence: IMITGYLLLFR [INSR_Y87_D86G]
- phosphorylation enrichment (EPHB2): 0.547
- phosphorylation enrichment (MERTK): 0.668
- phosphorylation enrichment (Fes): 1.4
- phosphorylation enrichment (AncSZ): 1.19
- phosphorylation enrichment (Jak2): 1.02
- phosphorylation enrichment (FGFR1): 0.721
- phosphorylation enrichment (Hck): 0.57
- phosphorylation enrichment (EPHB1): 0.521
- phosphorylation enrichment (FGFR3): 0.866
- phosphorylation enrichment (c-Abl (mouse)): 1.13
- phosphorylation enrichment (c-Src): 0.419
- phosphorylation enrichment (Fyn): 0.63
- phosphorylation enrichment (Fer (mouse)): 0.593
- SH2 binding enrichment (SHP2-C SH2): 1.83
- SH2 binding enrichment (Grb2 SH2): 2.37
- SH2 binding enrichment (c-Src SH2): 0.899

Sequence: INPIIYAFVGE [CCR5_Y297]
- phosphorylation enrichment (EPHB2): 9.51
- phosphorylation enrichment (MERTK): 7.72
- phosphorylation enrichment (Fes): 2.02
- phosphorylation enrichment (AncSZ): 1.17
- phosphorylation enrichment (Jak2): 1.03
- phosphorylation enrichment (FGFR1): 3.48
- phosphorylation enrichment (Hck): 6.19
- phosphorylation enrichment (EPHB1): 10.7
- phosphorylation enrichment (FGFR3): 2.75
- phosphorylation enrichment (c-Abl (mouse)): 10.4
- phosphorylation enrichment (c-Src): 4.84
- phosphorylation enrichment (Fyn): 6.13
- phosphorylation enrichment (Fer (mouse)): 6.77
- SH2 binding enrichment (SHP2-C SH2): 0.6
- SH2 binding enrichment (Grb2 SH2): 0.776
- SH2 binding enrichment (c-Src SH2): 0.46

Sequence: IPQEEYKATGL
- phosphorylation enrichment (EPHB2): 0.635
- phosphorylation enrichment (MERTK): 0.492
- phosphorylation enrichment (Fes): 1.18
- phosphorylation enrichment (AncSZ): 0.84
- phosphorylation enrichment (Jak2): 0.93
- phosphorylation enrichment (FGFR1): 0.527
- phosphorylation enrichment (Hck): 0.631
- phosphorylation enrichment (EPHB1): 0.706
- phosphorylation enrichment (FGFR3): 0.677
- phosphorylation enrichment (c-Abl (mouse)): 0.776
- phosphorylation enrichment (c-Src): 0.535
- phosphorylation enrichment (Fyn): 0.497
- phosphorylation enrichment (Fer (mouse)): 0.531
- SH2 binding enrichment (SHP2-C SH2): 0.777
- SH2 binding enrichment (Grb2 SH2): 0.763
- SH2 binding enrichment (c-Src SH2): 0.564

Sequence: IRKDLYANNVM [ACTA1_Y296]
- phosphorylation enrichment (EPHB2): 0.527
- phosphorylation enrichment (MERTK): 0.413
- phosphorylation enrichment (Fes): 0.863
- phosphorylation enrichment (AncSZ): 0.559
- phosphorylation enrichment (Jak2): 0.772
- phosphorylation enrichment (FGFR1): 0.447
- phosphorylation enrichment (Hck): 0.572
- phosphorylation enrichment (EPHB1): 0.605
- phosphorylation enrichment (FGFR3): 0.588
- phosphorylation enrichment (c-Abl (mouse)): 0.576
- phosphorylation enrichment (c-Src): 0.419
- phosphorylation enrichment (Fyn): 0.488
- phosphorylation enrichment (Fer (mouse)): 0.436
- SH2 binding enrichment (SHP2-C SH2): 0.381
- SH2 binding enrichment (Grb2 SH2): 1.21
- SH2 binding enrichment (c-Src SH2): 0.732
